In US7132278B2, “PAS kinase” (Board of Regents, The University of Texas System, priority 2001, dated 2006) one finds Km data, which are given here for 1 protein.

Substrate in this data set: Nc1ncnc2c1ncn2[C@@H]1O[C@H](COP(=O)(O)OP(=O)(O)OP(=O)(O)O)[C@@H](O)[C@H]1O
In words: PASK kinase activity (phosphorylation of AMARA peptide), ATP kinetics. Particulars: other: HTS kinase assay, AMARA peptide substrate, Tris-HCl pH 7.5, 10 mM MgCl2, room temperature. Type of data set: biochemical, human. As for the experimental part: Biochemical properties of the Pask enzyme. A recombinant baculovirus was engineered to overexpress human PASK enzyme in cultured insect cells. The enzyme was expressed as a fusion with a His6 tag at its amino terminus such that the recombinant polypeptide could be purified by Ni-affinity chromatography. Routine enzyme preparations were harvested from 0.8 liter of cultured Sf-9 cells. Cells were lysed by dounce homogenization in 50 mM Tris-HCl, pH 8.0, 100 mM NaCl, 0.04% β-mercaptoethanol (“lysis buffer”) and spun at 100,000×G for one hour to remove insoluble debris. Soluble material (˜50 ml) was then applied to a 3 ml bed volume of Ni-affinity resin. Following application and 50× column volume wash, bound material was eluted with storage buffer (50 mM HEPES, pH 7.4, 100 mM NaCl, 1 mM DTT, 1 mM EDTA) supplemented with 250 mM imidazole. Eluted material was sequentially subjected to Mono-Q, anion-exchange chromatography, and eluted with increasing NaCl concentration. Fractions were evaluated by SDS-PAGE to identify PASK enriched fractions, pooled and dialyzed against storage buffer supplemented with 10% glycerol. Typical enzyme preparations yield 0.5 mg of intact PASK enzyme judged to be greater than 95% pure by visual inspection of Coomassie-stained SDS-PAGE gels.

B1: human PASK (PAS-kinase), wild type, SEQ ID NO:2 (Homo sapiens) (protein)
chain: MEDGGLTAFEEDQRCLSQSLPLPVSAEGPAAQTTAEPSRSFSSAHRHLSRRNGLSRLCQSRTALSEDRWSSYCLSSLAAQNICTSKLHCPAAPEHTDPSEPRGSVSCCSLLRGLSSGWSSPLLPAPVCNPNKAIFTVDAKTTEILVANDKACGLLGYSSQDLIGQKLTQFFLRSDSDVVEALSEEHMEADGHAAVVFGTVVDIISRSGEKIPVSVWMKRMRQERRLCCVVVLEPVERVSTWVAFQSDGTVTSCDSLFAHLHGYVSGEDVAGQHITDLIPSVQLPPSGQHIPKNLKIQRSVGRARDGTTFPLSLKLKSQPSSEEATTGEAAPVSGYRASVWVFCTISGLITLLPDGTIHGINHSFALTLFGYGKTELLGKNITFLIPGFYSYMDLAYNSSLQLPDLASCLDVGNESGCGERTLDPWQGQDPAEGGQDPRINVVLAGGHVVPRDEIRKLMESQDIFTGTQTELIAGGQLLSCLSPQPAPGVDNVPEGSLPVHGEQALPKDQQITALGREEPVAIESPGQDLLGESRSEPVDVKPFASCEDSEAPVPAEDGGSDAGMCGLCQKAQLERMGVSGPSGSDLWAGAAVAKPQAKGQLAGGSLLMHCPCYGSEWGLWWRSQDLAPSPSGMAGLSFGTPTLDEPWLGVENDREELQTCLIKEQLSQLSLAGALDVPHAELVPTECQAVTAPVSSCDLGGRDLCGGCTGSSSACYALATDLPGGLEAVEAQEVDVNSFSWNLKELFFSDQTDQTSSNCSCATSELRETPSSLAVGSDPDVGSLQEQGSCVLDDRELLLLTGTCVDLGQGRRFRESCVGHDPTEPLEVCLVSSEHYAASDRESPGHVPSTLDAGPEDTCPSAEEPRLNVQVTSTPVIVMRGAAGLQREIQEGAYSGSCHHRDGLRLSIQFEVRRVELQGPTPLFCCWLVKDLLHSQRDSAARTRLFLASLPGSTHSTAAELTGPSLVEVLRARPWFEEPPKAVELEGLAACEGEYSQKYSTMSPLGSGAFGFVWTAVDKEKNKEVVVKFIKKEKVLEDCWIEDPKLGKVTLEIAILSRVEHANIIKVLDIFENQGFFQLVMEKHGSGLDLFAFIDRHPRLDEPLASYIFRQLVSAVGYLRLKDIIHRDIKDENIVIAEDFTIKLIDFGSAAYLERGKLFYTFCGTIEYCAPEVLMGNPYRGPELEMWSLGVTLYTLVFEENPFCELEETVEAAIHPPYLVSKELMSLVSGLLQPVPERRTTLEKLVTDPWVTQPVNLADYTWEEVCRVNKPESGVLSAASLEMGNRSLSDVAQAQELCGGPVPGEAPNGQGCLHPGDPRLLTS
For the protein B1, the Michaelis-Menten constant (Km) – broadly, the substrate concentration at which the rate is half of its maximum – is 2500 µM.
